These results are taken from publication doi:10.1101/2022.08.30.505852.

For the test, the target named is βCAT_(666-729), β-catenin residues 666-729 (human) (UniProt P35222). As to the kind of experiment: ITC.
βCAT_(666-729), β-catenin residues 666-729 (human), sequence (P35222 666-729): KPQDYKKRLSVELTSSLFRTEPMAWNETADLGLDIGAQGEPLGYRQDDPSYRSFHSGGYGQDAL

In turn, “TAZ1 domain of CBP (residues 346-440) (from UniProt Q92793 346-440) (domain or fragment)” registered a Kd of 67 µM.

What is called Kd is a measure of binding affinity in units of concentration. A low value points to tighter binding.
